Assay: soluble on expression in E. coli; label from the status in PepcDB or PDB records

Sequence | soluble on expression in E. coli
MYLQPKKVRWRKQRRGTLKGKAFRGNKLAFGEYGIQALDRAWITQQQIEAVRVALVRSLKKGAKVWIRIFPDKPYTKKPNEVRMGGGKGDPEGFVAVVKPGRILFEFTGVPEEVAQEAFTIAASKLPIPVRLVKYGEFTFKYLEHHHHHH | not soluble
MSDTPATRDFGLIDGRAVTGYVLSNRRGTRVCVLDLGGIVQEFSVLADGVRENLVVSFDDAASYADNPFQINKQIGRVAGRIRGAAFDINGRTYRVEANEGRNALHGGSHGLAVTRFNAVAADGRSVVLRSRLQQSADGYPNDLDLDISYRLDEDDRLTVSYRATALGDTVFDPTLHIYWRLDAGLHDAVLHIPQGGHMPADAEKLPVSTVSDDLEVFDFSRPKPLDAAVAALRRETGRAGFDDAYRVPSDIGRPAAVLQAGRRRRISIYSDRNGLVIFTAAPQDFARHDAGVYDALATEAQTLPDSLNWPEFGNIRLNKGDTREATIAYGIESLS | not soluble
MKFAVSSKGDQVSDTLKSKIQAYLLDFDMELDENEPEIVISVGGDGTLLYAFHRYSDRLDKTAFVGVHTGHLGFYADWVPHEIEKLVLAIAKTPYHTVEYPLLEVIVTYHENEREERYLALNECTIKSIEGSLVADVEIKGQLFETFRGDGLCLSTPSGSTAYNKALGGAIIHPSIRAIQLAEMASINNRVFRTVGSPLLLPSHHDCMIKPRNEVDFQVTIDHLTLLHKDVKSIRCQVASEKVRFARFRPFPFWKRVQDSFIGKGELEHHHHHH | soluble
MDIQLVADGLQFPEGPIAMADGSVILTEIQGQRLTRVWPDGRKETVAETGGGPNGAAIGPDGAIYVTNNGGSFQFFEANGLNIPGPTPPTHTGGAIQRVDLKTGAITTLYTECDGKPLVGPNDLVFDKQGGFWFTDHGCSTPDGRKYGALYYALPDGSKITRWRDHFVSPNGVGLSPDEKTVYMADTMLGRLWSFDVASPGVLADAVPLLPGNVVCNLPGYQLLDSLAVEADGKVCVATIINGGITAFAPDGSTEHYAFPDVIVTNICFGGADMRDAWITASGTGKLYKARWPRPGLKLNFNGLEHHHHHH | soluble
MVDLYQLFKTRTPIIGVVHLLPLPTSPRWGGSLKAVIDRAEQEATALASGGVNGIIVENFFDAPFTKNQVDPAVVSAMTVVVQRIQNLVTLPVGLNVLRNDGKSAMAIASCVRAQFIRVNVLTGVMATDQGLIEGEAHELLRYRRELGSDVQILADVLVKHARPLSSPNLTVAVKDTIERGLADAVILSGWATGSPPNQEDLELACDAANGTPVFIGSGASWENIATLLQAANGVIVSSSLKRHGRIEQPIDPIRVSQFVEAAHRSWNSKGESKSVSSITIHSLEHHHHHH | not soluble
MGLLDLIGRKRARDKPQNSYEGQDFSYLFGRTTSGENVDEFKTMQTTAVYACVRVLAEAVASLPIHIYERTENGKEKKLDHPLYFLLHDEPNPEMSSFIFRETIMSHLLIWGNAYVQIIRDKSGMVSLLLKQKASVLIRKLLLIIWQRMP | not soluble
MALPKFELLSLADNTVGWGPLASSSSADEPVPFQQFNKADRIGRVADWIGVDRFYRRGNERYNERVYGSAANAGSQFDYIHGMDEHNFQLVDTSKPMARNPQRNFRVRQMHLRKMMQKENEKREMVNQSTNLRMKRSIAKEQQRAFKMWQRRGGNARQGQRGQGGRFGGDRPKERLPSVQVRPEWVVLEEMNLSAFSKLALPNIPGGDDIGDHQYGSLQYYDKTIDRVSVKNSIPLQRCAGVFYNVTTTEDPVIQELAQGGAGNVFGTDIILATLMTAPRSVYSWDIVAYRVGDKLFFDKRNTRDILNPVETLTVSETSAEPPSFDGNGINNAKDLATEAFYINQNFRRQVVKRNDAGFTFKNARAPFEDEETGESGTAYKYRKWNLGNGVDGKPVELVCRTELDGVIHGLGNETQTLTIKAFNEWDSTQSGGVDWRTKLDVQKGAVMATEIKNNSAKVAKWTLQALLAGSDTMKLGYVSRNNARSTQNHSILLTQYVKPTEFASNIALNMDNCWGILRCVIDSCMKQKPGKYLLMKDPQSPVIRLYSLPEGTFESERESSDEENSDDDQ | not soluble
MALGPLVTGLYDVQAFKFGDFVLKSGLSSPIYIDLRGIVSRPRLLSQVADILFQTAQNAGISFDTVCGVPYTALPLATVICSTNQIPMLIRRKETKDYGTKRLVEGTINPGETCLIIEDVVTSGSSVLETVEVLQKEGLKVTDAIVLLDREQGGKDKLQAHGIRLHSVCTLSKMLEILEQQKKVDAETVGRVKRFIQEAHHHHHH | soluble
MVRVCACLIVKNEAAHLARCLGSVQPWVDDIVVVDTGSTDETPAIARQFTERLFTFPWQDDFAAARNYSLEQATGDWILVIDADEVLVTLQEPPVPLGQQLAGSPFTAYQLLRREIGTGEQFSDFAIVRLFRNLPTLRYQGRFHEQLVSTAAAPLTIGTLETLRIDHYGYQPAQIQAKMRDRNIPILERIRASEGLPLHLLFALADMYQAVNNPVEAENCYQELFDRLLPHLLSGQLPENAPGALPEILNQLGRRLLATGDHDTLQLLCQQGLAWFPTYPPLNDLAGRWLMTLGFPLGATAYFEYCLELGRTNGYSKQMIFPLGYVREIAAEQLGRAYEALGDRERAAAAFAQAAALRQGKAHPQLEHHHHHH | soluble
MGSDKIHHHHHHMAKLCHKPLHILFFRHSLLGRGGDKMVVCQANALARRGHQVTIRTATLATPFSLDDRIEINLTGSSSVAATLMDLFKGRFSFDLLIVDIIPLAVLAGIRFGRTKVIYYVQDWDVSYYRSLAFRSLIRLLYFVERSFLRIPVIVVSEHLLGKIGRTGIGATYVVENGIDLTLFNSKGRLHPAFAPGHIPTFLLFIRNDWRKGSDLALKVVKKLADRYPHAFGVVAVGNRPAIRPSQIDWIDKGFMDERQIADLMKQCDLFLYPSRHEGFGLMALEAFACGCLVVTTTAVGFAHDIENSLVAEVDDEQGLYSRLCCLLEKQIEIAPLVKKAEEFASEHPLELCMDRFCSVIEELNQ | not soluble
MSLQQQPPGTPKSTHGAWSVICDKPAGASEEQCALMQNVIADDRPEVGLSVVILKTADRKSRILRILAPLGVLLKDGMELYIDNNNIGRAYFTRCFSEGCYVEVDIDDELLKVLRAGKNAVFALRESVDQDRVGIPIELSGFAEGYDALPEGHHHHHH | not soluble
TDPDCDRVGIVVKDSSGEYVVLNGNQVGSLLVRYILESLVEENKLPKNNPTIIKTIVTSELGAKIAKAYNVDCLNTLTGFKFIGEKIKAFEESNDRSFIMGYEESYGYLIGTHARDKDGVVSSLMICEMAAYYSSKGMNLYEALIDTYNKFGY | not soluble
MAVLGLQGVRGGVGTTTITAALAWSLQMLGENVLVVDACPDNLLRLSFNVDFTHRQGWARAMLDGQDWRDAGLRYTSQLDLLPFGQLSIEEQENPQHWQTRLSDICSGLQQLKASGRYQWILIDLPRDASQITHQLLSLCEHSLAIVNVDANCHIRLHQQALPDGAHILINDFRIGSQVQDDIYQLWLQSQRRLLPMLIHRDEAMAECLAAKQPVGEYRSDALAAEEILTLANWCLLNYSGLKTPVGSAS | not soluble
MPTDKEGDFIDPKEQEESLENIFSSLNDFQEKTDANAQKNEQKNEQEEEQRRLKEQQRLRKNQKNQEMLKGLQQNLNQFAQKLESVKNKTLDLQIPKQDGVDEKAYQEWYAQIYQILYKGWKGVFYHKASVSALIMIAKDGEFDYTILSYSDFKDYNKSVMTLLNDLKKVDFPPYPGGSMISIQVNFTTKEEQ | not soluble
SLSKEKISVQENKKMATIRDISLKCGVSVSTVSKVLNGYREIGEETSKAVMKAAEELGYVPNSYARQLKLKKSYNIGVLFDTLSVYGLKNEYFAHILAALRENASQGGYDITFIENNIGNRRMTYLEHCKYRNFDGICIVCADFTNPEVLDVVNSDFPVVTIDHSFNEAISILSDNSGGMRDLAQYIVSMGHKKIAYIHGNKSSVTHNRLVAFHQVLAEHDIVIPEYYMKEGEYRLAESAEEFTYELLNLSDRPTCILASDDYAALGVIKAIKRAGLRFPEDISVAGFDGISISQALEPKLTTVKQDTEKLGEQAAKKLICLMESPMTTPLEHIVLKAELIIGDSVKKLREG | soluble
DDIHLIATSDVLYFKAEEKYVSVYAQQGKGEVQEYLIRTSLKELIGQLNPEQFWQVHRSSVVQVSKISKVNKDFAGRMFVYVGETKLPVSRASQSLFKGM | not soluble
MALREFSSVKVGDQLPEKTYPLTRQDLVNYAGVSGDLNPIHWDDEIAKVVGLDTAIAHGMLTMGIGGGYVTSWVGDPGAVTEYNVRFTAVVPVPNDGKGAELVFNGRVKSVDPESKSVTIALTATTGGKKIFGRAIASAKLA | soluble
